Consider two molecules from PMC6948969, “Regulation of gene expression by the action of a fungal lncRNA on a transactivator”.

Data set [1] has as its target T1, Xyr1 (Xylanase regulator 1) (Trichoderma reesei, UniProt G0RLE8 1-920).
T1 sequence: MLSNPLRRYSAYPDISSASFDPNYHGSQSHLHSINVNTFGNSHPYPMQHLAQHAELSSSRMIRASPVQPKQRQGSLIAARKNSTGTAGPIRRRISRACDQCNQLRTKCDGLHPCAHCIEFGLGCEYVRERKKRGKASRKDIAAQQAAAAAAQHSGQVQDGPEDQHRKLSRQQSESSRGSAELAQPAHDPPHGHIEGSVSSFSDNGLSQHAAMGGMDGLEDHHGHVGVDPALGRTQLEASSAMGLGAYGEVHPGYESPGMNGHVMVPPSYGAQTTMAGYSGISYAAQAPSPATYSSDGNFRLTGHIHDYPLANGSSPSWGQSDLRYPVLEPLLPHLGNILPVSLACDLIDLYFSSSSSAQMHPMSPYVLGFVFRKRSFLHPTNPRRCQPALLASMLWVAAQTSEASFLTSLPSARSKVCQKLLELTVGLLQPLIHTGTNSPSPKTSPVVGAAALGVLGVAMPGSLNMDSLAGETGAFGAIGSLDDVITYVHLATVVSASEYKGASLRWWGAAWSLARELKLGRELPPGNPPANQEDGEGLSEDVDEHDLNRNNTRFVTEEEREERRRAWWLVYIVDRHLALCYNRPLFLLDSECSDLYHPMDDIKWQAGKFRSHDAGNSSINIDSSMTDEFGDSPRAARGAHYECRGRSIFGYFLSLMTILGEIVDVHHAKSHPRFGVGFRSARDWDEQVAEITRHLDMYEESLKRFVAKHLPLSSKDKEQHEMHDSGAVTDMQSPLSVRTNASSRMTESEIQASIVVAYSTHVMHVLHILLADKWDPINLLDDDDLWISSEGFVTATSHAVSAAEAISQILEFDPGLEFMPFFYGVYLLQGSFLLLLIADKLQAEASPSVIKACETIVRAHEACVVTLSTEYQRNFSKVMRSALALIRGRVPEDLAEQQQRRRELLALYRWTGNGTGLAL
Nature of the data set: circular dichroism; 1.8 or 3.6 uM DNA, 0.5 uM Xyr1; larger loss of ellipticity at 222 nm than XBS; EMSA/RNA-EMSA: 10 mM Tricine, 50 mM NaCl, pH 7.4, 22 C, 10 min; gel 0.5x TBE, 4 C. CD: 50 mM Tris, 200 mM NaCl, 50 mM NaH2PO4, 10% glycerol, pH 7.5, 22 C. The note with it: protein: recombinant; chain copies: 2; blunt. A general note: Circular dichroism is the unequal absorption of left and right circularly polarised light.

Data set [2] has as its target T1, Xyr1 (Xylanase regulator 1). Nature of the data set: circular dichroism; 1.8 or 3.6 uM DNA, 0.5 uM Xyr1; EMSA/RNA-EMSA: 10 mM Tricine, 50 mM NaCl, pH 7.4, 22 C, 10 min; gel 0.5x TBE, 4 C. CD: 50 mM Tris, 200 mM NaCl, 50 mM NaH2PO4, 10% glycerol, pH 7.5, 22 C. The conditions noted are these: protein: recombinant; chain copies: 2; blunt.

B1: XRE probe (xyr1 promoter) (dsDNA)
DNA 1: CACTGGATACCTACCTAGGTAGTCTGCAGCAGAAG
DNA 2: CTTCTGCTGCAGACTACCTAGGTAGGTATCCAGTG
Consider B1, for which the binding result in data set [1] is listed as “binds”.

B2: XBS probe (xyn1 promoter) (dsDNA)
DNA 1: TTGGCAGGCTAAATGCGACATCTTAGCCGGATGCA
DNA 2: TGCATCCGGCTAAGATGTCGCATTTAGCCTGCCAA
On to B2, for which the binding result in data set [2] is on record as “binds”.
